Earlier results in publication PMC12362618, “Development of the First Small-Molecule Inhibitor Targeting Oncostatin M for Treatment of Breast Cancer” (Journal of Medicinal Chemistry, 2025).

Molecular target: gp130 (Homo sapiens) (UniProt P40189)
Sequence (P40189 23-619): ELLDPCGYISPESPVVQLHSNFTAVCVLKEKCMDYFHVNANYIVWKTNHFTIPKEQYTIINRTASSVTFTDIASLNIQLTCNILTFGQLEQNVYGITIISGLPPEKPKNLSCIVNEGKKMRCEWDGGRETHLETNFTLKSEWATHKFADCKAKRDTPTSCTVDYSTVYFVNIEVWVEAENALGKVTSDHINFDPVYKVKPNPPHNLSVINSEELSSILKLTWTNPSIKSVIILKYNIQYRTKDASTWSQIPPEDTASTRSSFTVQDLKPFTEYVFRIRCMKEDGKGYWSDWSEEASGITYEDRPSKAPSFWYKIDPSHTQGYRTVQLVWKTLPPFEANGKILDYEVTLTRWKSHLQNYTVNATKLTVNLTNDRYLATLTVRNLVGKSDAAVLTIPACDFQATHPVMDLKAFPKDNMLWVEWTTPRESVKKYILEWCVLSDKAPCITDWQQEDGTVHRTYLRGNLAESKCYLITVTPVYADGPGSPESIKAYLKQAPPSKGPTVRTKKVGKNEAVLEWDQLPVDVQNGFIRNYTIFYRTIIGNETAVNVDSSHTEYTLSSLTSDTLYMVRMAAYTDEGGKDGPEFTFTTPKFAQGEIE

Sequence of OSM (P13725 26-221): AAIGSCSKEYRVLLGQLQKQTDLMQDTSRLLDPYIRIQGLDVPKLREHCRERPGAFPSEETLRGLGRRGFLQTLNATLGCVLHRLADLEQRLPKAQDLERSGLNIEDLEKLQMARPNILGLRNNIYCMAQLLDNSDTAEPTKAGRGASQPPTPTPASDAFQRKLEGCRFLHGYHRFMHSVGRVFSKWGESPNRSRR

Kd: 22.7 nM
Substance: OSM (from UniProt P13725)
